From the supplement of paper PMC7877785
± gives the uncertainty stated by the source.

Test: self-splicing fitness, log relative to wild type (ln ratio); higher = more splicing; Tetrahymena group I intron in knt gene, E. coli kanamycin selection, DiMSum; sequences stand for … in CUCUCU…GGAGGGAAAAGUUAUCAGGCAUGCACCUGGUAGCUAGUCUUUAAACCAAUAGAUUGCAUCGGUUUAAAAGGCAAGACCGUCAAAUUGCGGGAAAGGGGUCAACAGCCGUUCAGUACCAAGUCUCAGGGGAAACUUUGAGAUGGCCUUGCAAAGGGUAUGGUAAUAAGCUGACGGACAUGGUCCUAACCACGCAGCCAAGUCCUAAGUCAACAGAUCUUCUGUUGAUAUGGAUGCAGUUCACAGACUAAAUGUCGGUCGGGGAAGAUGUAUUCUUCUCAUAAGAUAUAGUCGGACCUCUCCUUAAUGGGAGCUAGCGGAUGAAGUGAUGCAACACUGGAGCCGCUGGGAACUAAUUUGUAUGCGAAAGUAUAUUGAUUAGUUUUGGAGUACUCGUGGUCG
Summary of the method: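 The eight P1ex-region nucleotides of an intron in the knt kanamycin-resistance gene on pET-22b(+) were all randomised and the library put into E. coli BL21(DE3). Six replicate transformations were grown overnight at 37°C or 30°C on LB agar with or without 25 μg/mL kanamycin, together with 100 μg/mL carbenicillin, 50 μM IPTG and 0.2% rhamnose. Colonies were pooled and amplicon-sequenced on an Illumina HiSeq 2500. Fitness from DiMSum is the error-weighted combination of wild-type-normalised replicate fold changes, kanamycin over none.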

Row | Sequence | self-splicing fitness (ln) (30 °C) | self-splicing fitness (ln) (37 °C)
1 | CGUAAGCAAUAUUACGCAGU | -3.05 ± 0.2 | -2.64 ± 0.34
2 | CGUAAGCAAUAUUACGCCCG | -1.93 ± 0.18 | -0.621 ± 0.23
3 | CGUAAGCAAUAUUACGCUAG | -2.48 ± 0.13 | -0.429 ± 0.14
4 | CGUAAGCAAUAUUACGGACU | -0.0269 ± 0.14 | -0.0508 ± 0.14
5 | CGUAAGCAAUAUUACGGAGA | -2.79 ± 0.24 | -2.28 ± 0.29
6 | CGUAAGCAAUAUUACGGAUA | – | -2.1 ± 0.38
7 | CGUAAGCAAUAUUACGGGCA | -3.24 ± 0.23 | -1.09 ± 0.14
8 | CGUAAGCAAUAUUACGGUGG | -1.48 ± 0.082 | -1.25 ± 0.11
9 | CGUAAGCAAUAUUACGUAAC | -4.35 ± 0.26 | -2.51 ± 0.21
10 | CGUAAGCAAUAUUACGUCAG | -1.56 ± 0.11 | 0.0936 ± 0.11
11 | CGUAAGCAAUAUUACGUGCA | -0.906 ± 0.086 | 0.102 ± 0.096
12 | CGUAAGCAAUAUUACGUGGG | -3.43 ± 0.16 | -2.67 ± 0.15
13 | CGUAAGCAAUAUUACGUUGC | -2.73 ± 0.22 | -1.81 ± 0.29
14 | CGUCAGCAAUAUUACGAACA | -0.807 ± 0.078 | 0.843 ± 0.12
15 | CGUCAGCAAUAUUACGAGUA | -2.55 ± 0.28 | -2.69 ± 0.39
16 | CGUCAGCAAUAUUACGAGUC | – | -1.18 ± 0.18
17 | CGUCAGCAAUAUUACGAGUU | -3.3 ± 0.22 | -1.84 ± 0.22
18 | CGUCAGCAAUAUUACGAUAA | -1.1 ± 0.14 | 0.157 ± 0.12
19 | CGUCAGCAAUAUUACGCAAA | -2.96 ± 0.17 | -1.12 ± 0.16
20 | CGUCAGCAAUAUUACGCAGA | -2.79 ± 0.46 | -3.76 ± 0.46
21 | CGUCAGCAAUAUUACGCGGA | – | -3.17 ± 0.32
22 | CGUCAGCAAUAUUACGGAAG | -0.632 ± 0.088 | 0.304 ± 0.12
23 | CGUCAGCAAUAUUACGGACU | -0.14 ± 0.09 | 0.0847 ± 0.089
24 | CGUCAGCAAUAUUACGGGGA | -2.96 ± 0.16 | -1.91 ± 0.14
25 | CGUCAGCAAUAUUACGGUCG | -2.52 ± 0.11 | -2 ± 0.15
26 | CGUCAGCAAUAUUACGGUCU | -0.849 ± 0.079 | -0.828 ± 0.1

Row | Sequence | self-splicing fitness (ln) (30 °C) | self-splicing fitness (ln) (37 °C)
27 | CGUCAGCAAUAUUACGGUUG | -0.45 ± 0.065 | -0.256 ± 0.081
28 | CGUCAGCAAUAUUACGUCAC | – | -1.42 ± 0.26
29 | CGUCAGCAAUAUUACGUCAU | -3.73 ± 0.19 | -2.59 ± 0.16
30 | CGUCAGCAAUAUUACGUUCA | -1.26 ± 0.082 | -0.74 ± 0.087
31 | CGUGAGCAAUAUUACGAACG | -2.89 ± 0.38 | –
32 | CGUGAGCAAUAUUACGAAGU | -3.6 ± 0.21 | -2.41 ± 0.19
33 | CGUGAGCAAUAUUACGACAA | – | -3.33 ± 0.25
34 | CGUGAGCAAUAUUACGACUG | -0.73 ± 0.12 | -0.0318 ± 0.16
35 | CGUGAGCAAUAUUACGAGCC | – | -1.35 ± 0.41
36 | CGUGAGCAAUAUUACGCACG | -3.19 ± 0.29 | -2.94 ± 0.47
37 | CGUGAGCAAUAUUACGCAUA | -3.2 ± 0.28 | -1.18 ± 0.34
38 | CGUGAGCAAUAUUACGCAUU | -4.1 ± 0.47 | -2.15 ± 0.19
39 | CGUGAGCAAUAUUACGCCUA | -1.86 ± 0.25 | -0.88 ± 0.36
40 | CGUGAGCAAUAUUACGGACG | -2.08 ± 0.22 | -1.31 ± 0.38
41 | CGUGAGCAAUAUUACGGUUA | -3.15 ± 0.33 | -2.98 ± 0.29
42 | CGUGAGCAAUAUUACGUAUU | -3.5 ± 0.4 | -3.11 ± 0.35
43 | CGUGAGCAAUAUUACGUGAU | -3.8 ± 0.24 | -3.21 ± 0.23
44 | CGUGAGCAAUAUUACGUUCG | -2.61 ± 0.15 | -3.09 ± 0.28
45 | CGUGAGCAAUAUUACGUUGU | -4.24 ± 0.26 | -1.58 ± 0.17
46 | CGUGAGCAAUAUUACGUUUU | -3.42 ± 0.16 | -3.73 ± 0.37
47 | CGUUAGCAAUAUUACGACAG | 0.473 ± 0.14 | -0.134 ± 0.15
48 | CGUUAGCAAUAUUACGACUG | -0.369 ± 0.12 | 0.327 ± 0.14
49 | CGUUAGCAAUAUUACGAUAG | -0.0326 ± 0.15 | -0.211 ± 0.14
50 | CGUUAGCAAUAUUACGAUCC | -1.74 ± 0.19 | -0.851 ± 0.21
51 | CGUUAGCAAUAUUACGAUCG | -0.9 ± 0.11 | -1.12 ± 0.14
52 | CGUUAGCAAUAUUACGCACU | -2.03 ± 0.12 | -0.906 ± 0.11

Row | Sequence | self-splicing fitness (ln) (30 °C) | self-splicing fitness (ln) (37 °C)
53 | CGUUAGCAAUAUUACGCAUC | – | -2.72 ± 0.41
54 | CGUUAGCAAUAUUACGCCAG | -0.657 ± 0.22 | 0.474 ± 0.35
55 | CGUUAGCAAUAUUACGCUGA | -2.78 ± 0.3 | -2.66 ± 0.29
56 | CGUUAGCAAUAUUACGGAUC | -2.18 ± 0.12 | -1.13 ± 0.19
57 | CGUUAGCAAUAUUACGGGUG | -0.565 ± 0.057 | 0.0881 ± 0.071
58 | CGUUAGCAAUAUUACGGUAC | -2.98 ± 0.24 | -2.96 ± 0.38
59 | CGUUAGCAAUAUUACGUAAC | – | -2.3 ± 0.46
60 | CGUUAGCAAUAUUACGUACA | -0.358 ± 0.11 | -0.966 ± 0.12
61 | CGUUAGCAAUAUUACGUACU | -0.583 ± 0.078 | 0.0264 ± 0.097
62 | CGUUAGCAAUAUUACGUAGA | -2.87 ± 0.18 | -1.9 ± 0.22
63 | CGUUAGCAAUAUUACGUAGU | -4.27 ± 0.25 | -2.85 ± 0.23
64 | CGUUAGCAAUAUUACGUGAG | -1.59 ± 0.087 | -0.0698 ± 0.13
65 | CGUUAGCAAUAUUACGUUGC | -3.94 ± 0.34 | -1.95 ± 0.18
66 | CUAAAGCAAUAUUACGAAAA | -3.34 ± 0.41 | -2.19 ± 0.35
67 | CUAAAGCAAUAUUACGAAGA | -2.46 ± 0.27 | -1.61 ± 0.3
68 | CUAAAGCAAUAUUACGAAGG | -1.03 ± 0.095 | -0.0689 ± 0.14
69 | CUAAAGCAAUAUUACGACAG | 0.277 ± 0.093 | 0.751 ± 0.12
70 | CUAAAGCAAUAUUACGAGAG | -1.13 ± 0.075 | -0.601 ± 0.099
71 | CUAAAGCAAUAUUACGAGGG | -2.22 ± 0.094 | -2.22 ± 0.16
72 | CUAAAGCAAUAUUACGAGGU | -4.41 ± 0.24 | -2.81 ± 0.25
73 | CUAAAGCAAUAUUACGAUCG | 0.485 ± 0.073 | 0.485 ± 0.1
74 | CUAAAGCAAUAUUACGAUGC | -3.96 ± 0.3 | -3.1 ± 0.33
75 | CUAAAGCAAUAUUACGAUUU | -4.23 ± 0.28 | -2.46 ± 0.32
76 | CUAAAGCAAUAUUACGCAAA | -3.47 ± 0.25 | –
77 | CUAAAGCAAUAUUACGCUCC | -3.15 ± 0.29 | -2.29 ± 0.35
78 | CUAAAGCAAUAUUACGGAUU | -4.39 ± 0.22 | -2.62 ± 0.23
